Laboratory results from US20240117018A1.

Legend:
Test in all cases: cell-based or functional assay
[1] = molecular target: HIV-1 Env of pseudovirus ZM197M.PB7 (HIV-1)
[2] = molecular target: HIV-1 Env of pseudovirus QH0692.42 (HIV-1)
[3] = molecular target: HIV-1 Env of pseudovirus 249M B10 (HIV-1)
[4] = molecular target: HIV-1 Env of pseudovirus ZM135M.PL10a (HIV-1)
[5] = molecular target: HIV-1 Env of pseudovirus Ce2010_F5 (HIV-1)
[6] = molecular target: HIV-1 Env of pseudovirus ZM53M.PB12 (HIV-1)
[7] = molecular target: HIV-1 Env of pseudovirus ZM109F.PB4 (HIV-1)
[8] = molecular target: HIV-1 Env of pseudovirus TRJO4551.58 (HIV-1)
[9] = molecular target: HIV-1 Env of pseudovirus HIV-0013095-2.11 (HIV-1)
[10] = molecular target: HIV-1 Env of pseudovirus ZM233M.PB6 (HIV-1)
[11] = molecular target: HIV-1 Env of pseudovirus 1006_11_C3_1601 (HIV-1)
[12] = molecular target: HIV-1 Env of pseudovirus Q461.e2 (HIV-1)
[13] = molecular target: HIV-1 Env of pseudovirus 6240_08_TA5_4622 (HIV-1)
[14] = molecular target: HIV-1 Env of pseudovirus 62357_14_D3_4589 (HIV-1)
[15] = molecular target: HIV-1 Env of pseudovirus Q259.d2.17 (HIV-1)
[16] = molecular target: HIV-1 Env of pseudovirus CNE8 (HIV-1)
[17] = molecular target: HIV-1 Env of pseudovirus 6244_13_B5_4576 (HIV-1)
[18] = molecular target: HIV-1 Env of pseudovirus CNE58 (HIV-1)
[19] = molecular target: HIV-1 Env of pseudovirus Q842.d12 (HIV-1)
[20] = molecular target: HIV-1 Env of pseudovirus Du172.17 (HIV-1)
[21] = molecular target: HIV-1 Env of pseudovirus CAP45.2.00.G3 (HIV-1)
[22] = molecular target: HIV-1 Env of pseudovirus BF1266.431a (HIV-1)
[23] = molecular target: HIV-1 Env of pseudovirus CNE53 (HIV-1)
[24] = molecular target: HIV-1 Env of pseudovirus RHPA4259.7 (HIV-1)
[25] = molecular target: HIV-1 Env of pseudovirus MS208.A1 (HIV-1)
[26] = molecular target: HIV-1 Env of pseudovirus 7030102001E5(Rev-) (HIV-1)
[27] = molecular target: HIV-1 Env of pseudovirus 1012_11_TC21_3257 (HIV-1)
[28] = molecular target: HIV-1 Env of pseudovirus ZM214M.PL15 (HIV-1)
[29] = molecular target: HIV-1 Env of pseudovirus Ce0393_C3 (HIV-1)
[30] = molecular target: HIV-1 Env of pseudovirus CNE17 (HIV-1)
[31] = molecular target: HIV-1 Env of pseudovirus Du422.1 (HIV-1)
[32] = molecular target: HIV-1 Env of pseudovirus Ce704809221_1B3 (HIV-1)
[33] = molecular target: HIV-1 Env of pseudovirus WEAU_d15_410_787 (HIV-1)
[34] = molecular target: HIV-1 Env of pseudovirus 1056_10_TA11_1826 (HIV-1)
[35] = molecular target: HIV-1 Env of pseudovirus AC10.0.29 (HIV-1)
[36] = molecular target: HIV-1 Env of pseudovirus ZM249M.PL1 (HIV-1)
[37] = molecular target: HIV-1 Env of pseudovirus Ce2060_G9 (HIV-1)

Substance: N49P7.1 (antibody)
- IC50 [1]: 0.144 µg/mL
- IC80 [1]: 0.539 µg/mL
- MPI [1]: 100
- IC50 [2]: 0.764 µg/mL
- IC80 [2]: 2.71 µg/mL
- MPI [2]: 100
- IC50 [3]: 0.053 µg/mL
- IC80 [3]: 0.225 µg/mL
- MPI [3]: 100
- IC50 [4]: 0.314 µg/mL
- IC80 [4]: 1.11 µg/mL
- MPI [4]: 99
- IC50 [5]: 0.055 µg/mL
- IC80 [5]: 0.208 µg/mL
- MPI [5]: 100
- IC50 [6]: 0.287 µg/mL
- IC80 [6]: 1 µg/mL
- MPI [6]: 100
- IC50 [7]: 0.055 µg/mL
- IC80 [7]: 0.199 µg/mL
- MPI [7]: 100
- IC50 [8]: 0.156 µg/mL
- IC80 [8]: 0.529 µg/mL
- MPI [8]: 100
- IC50 [9]: 0.105 µg/mL
- IC80 [9]: 0.374 µg/mL
- MPI [9]: 100
- IC50 [10]: 0.355 µg/mL
- IC80 [10]: 1.25 µg/mL
- MPI [10]: 100
- IC50 [11]: 0.061 µg/mL
- IC80 [11]: 0.193 µg/mL
- MPI [11]: 100
- IC50 [12]: 0.329 µg/mL
- IC80 [12]: 1.14 µg/mL
- MPI [12]: 100
- IC50 [13]: 0.509 µg/mL
- IC80 [13]: 1.95 µg/mL
- MPI [13]: 100
- IC50 [14]: 0.028 µg/mL
- IC80 [14]: 0.15 µg/mL
- MPI [14]: 100
- IC50 [15]: 0.505 µg/mL
- IC80 [15]: 4.23 µg/mL
- MPI [15]: 97
- IC50 [16]: 0.048 µg/mL
- IC80 [16]: 0.167 µg/mL
- MPI [16]: 100
- IC50 [17]: 0.184 µg/mL
- IC80 [17]: 0.493 µg/mL
- MPI [17]: 100
- IC50 [18]: 0.049 µg/mL
- IC80 [18]: 0.107 µg/mL
- MPI [18]: 100
- IC50 [19]: 0.028 µg/mL
- IC80 [19]: 0.08 µg/mL
- MPI [19]: 100
- IC50 [20]: 0.185 µg/mL
- IC80 [20]: 0.748 µg/mL
- MPI [20]: 100
- IC50 [21]: 0.086 µg/mL
- IC80 [21]: 0.567 µg/mL
- MPI [21]: 100
- IC50 [22]: 0.033 µg/mL
- IC80 [22]: 0.11 µg/mL
- MPI [22]: 100
- IC50 [23]: 0.066 µg/mL
- IC80 [23]: 0.228 µg/mL
- MPI [23]: 100
- IC50 [24]: 0.108 µg/mL
- IC80 [24]: 0.292 µg/mL
- MPI [24]: 100
- IC50 [25]: 0.12 µg/mL
- IC80 [25]: 0.431 µg/mL
- MPI [25]: 100
- IC50 [26]: 0.11 µg/mL
- IC80 [26]: 0.498 µg/mL
- MPI [26]: 100
- IC50 [27]: 0.063 µg/mL
- IC80 [27]: 0.176 µg/mL
- MPI [27]: 100
- IC50 [28]: 0.257 µg/mL
- IC80 [28]: 0.853 µg/mL
- MPI [28]: 100
- IC50 [29]: 0.23 µg/mL
- IC80 [29]: 1.02 µg/mL
- MPI [29]: 100
- IC50 [30]: 0.254 µg/mL
- IC80 [30]: 0.86 µg/mL
- MPI [30]: 100
- IC50 [31]: 3.76 µg/mL
- IC80 [31]: 15.7 µg/mL
- MPI [31]: 93
- IC50 [32]: 0.211 µg/mL
- IC80 [32]: 1.35 µg/mL
- MPI [32]: 100
- IC50 [33]: 0.058 µg/mL
- IC80 [33]: 0.142 µg/mL
- MPI [33]: 100
- IC50 [34]: 0.171 µg/mL
- IC80 [34]: 0.603 µg/mL
- MPI [34]: 100
- IC50 [35]: 5.31 µg/mL
- IC80 [35]: 46.8 µg/mL
- MPI [35]: 85
- IC50 [36]: 0.071 µg/mL
- IC80 [36]: 0.239 µg/mL
- MPI [36]: 100
- IC50 [37]: 0.473 µg/mL
- IC80 [37]: 2.41 µg/mL
- MPI [37]: 100
